In patent publication US20130302375A1, “MODULATION OF ANTIGEN IMMUNOGENICITY BY ADDITION OF EPITOPES RECOGNIZED BY NKT CELLS” (IMNATE SARL, priority 2010, published 2013):

B1: ova of SEQ ID4: ovalbumin with H22 and K187 mutated to F, generating new CD1d binding motifs (protein, listed as Gallus sp.)
chain: MGSIGAASMEFCFDVFKELKVFHANENIFYCPIAIMSALAMVYLGAKDSTRTQINKVVRFDKLPGFGDSIEAQCGTSVNVHSSLRDILNQITKPNDVYSFSLASRLYAEERYPILPEYLQCVKELYRGGLEPINFQTAADQARELINSWVESQTNGIIRNVLQPSSVDSQTAMVLVNAIVFKGLWEFTFKDEDTQAMPFRVTEQESKPVQMMYQIGLFRVASMASEKMKILELPFASGTMSMLVLLPDEVSGLEQLESIINFEKLTEWTSSNVMEERKIKVYLPRMKMEEKYNLTSVLMAMGITDVFSSSANLSGISSAESLKISQAVHAAHAEINEAGREVVGSAEAGVDAASVSEEFRADHPFLFCIKHIATNAVLFFGRCVSP
B2: ova of SEQ ID3: ovalbumin (chicken) in natural sequence (protein, listed as Gallus sp.)
chain: MGSIGAASMEFCFDVFKELKVHHANENIFYCPIAIMSALAMVYLGAKDSTRTQINKVVRFDKLPGFGDSIEAQCGTSVNVHSSLRDILNQITKPNDVYSFSLASRLYAEERYPILPEYLQCVKELYRGGLEPINFQTAADQARELINSWVESQTNGIIRNVLQPSSVDSQTAMVLVNAIVFKGLWEKTFKDEDTQAMPFRVTEQESKPVQMMYQIGLFRVASMASEKMKILELPFASGTMSMLVLLPDEVSGLEQLESIINFEKLTEWTSSNVMEERKIKVYLPRMKMEEKYNLTSVLMAMGITDVFSSSANLSGISSAESLKISQAVHAAHAEINEAGREVVGSAEAGVDAASVSEEFRADHPFLFCIKHIATNAVLFFGRCVSP
B3: Der p 2 of SEQ ID8: Der p 2 with the CD1d binding motif FAALAAF added at the carboxyterminal end (protein, listed as Dermatophagoides pteronyssinus)
chain: DQVDVKDCANHEIKKVLVPGCHGSEPCIIHRGKPFQLEAVFEANQNSKTAKIEIKASIDGLEVDVPGIDPNACHYMKCPLVKGQQYDIKYTWNVPKIAPKSENVVVTAKVMGDDGVLACAIATHAKIRDFAALAAF

Key:
[1] = test system: EG7 cells; experiment: In vitro killing of EG7 cells by NKT cells from immunized mice (Annexin V / 7-AAD); format: cell-based; conditions: 18 h at 37° C. with NKT cells from immunized mice, ratios 1/1 to 1/5 (EG7 versus NKT)
Procedure: In vitro killing of EG7 cells was evaluated using NKT cells prepared from the spleen using magnetic bead sorting. The NKT cells were first stimulated for 4 h in vitro with antigen-presenting cells loaded with ova of SEQ ID4. EG7 cells were labeled at membrane level with 1 μM DiOC18 (3,3′-dioctadecycloxacarbocyanine perchlorate from Invitrogen). EG7 cells (1×10^5 per well) were then cultured for 18 h at 37° C. in the presence of NKT cells obtained from each one of the 2 mouse groups, using ratios of 1/1 to 1/5 (EG7 cells versus NKT cells). After 18 h, cells were harvested and stained for Annexin V and 7-AAD following manufacturer's instructions (Apoptosis Detection kit; BD Biosciences) and analyzed on a FACSCantoII flow cytometer (BD Biosciences).

[2] = test system: EG7 tumor cells; experiment: EG7 tumor growth in preimmunized mice; format: in vivo; conditions: mice preimmunized subcutaneously in alum on 4 occasions, then engrafted with 10^6 EG7 tumor cells in the flank
Procedure: Immunization of mice with ova of SEQ ID4 was carried out using […] of ova in alum administered subcutaneously on 4 occasions separated by an interval of 10 days. A control group was immunized with ova in natural sequence (SEQ ID3). All mice were then engrafted with 10^6 EG7 tumor cells injected in the flank and the growth of the tumor was followed over time.

[3] = test system: anti-Der p 2 antibodies; experiment: Specific anti-Der p 2 antibodies by direct binding ELISA after immunization; format: in vivo, C57BL/6 mice; conditions: 50 μg protein in alum subcutaneously 4 times at 10 days intervals
Procedure: Two groups of C57BL/6 mice (H-2b) were immunized with either native Der p 2 (SEQ ID7) or native Der p 2 wherein a CD1d binding motif had been added (SEQ ID8), using 50 μg of protein in alum injected subcutaneously 4 times at 10 days intervals. Mice were then bled and the concentration of specific anti-Der p 2 antibodies was tested by direct binding ELISA. It is observed that the concentration of antibodies is 10-fold higher in the group of mice immunized with Der p 2 of SEQ ID8.

[4] = test system: class II restricted CD4+ T cells; experiment: Proliferation of CD4+ T cells from immunized mice cultured with dendritic cells from CD1d KO mice; format: cell-based, C57BL/6 mice; conditions: 10^6 cells/well with dendritic cells from syngeneic CD1d KO mice
Procedure: Further, CD4+ T cells were prepared from the spleen of each mouse from the 2 groups, using magnetic bead sorting. Such cells (10^6 cells/well) were cultured with dendritic cells prepared from syngeneic CD1d KO mice. Such cells can only activate class II restricted CD4+ T cells. It is observed that cells obtained from mice immunized with Der p 2 of SEQ ID8 proliferate with a stimulation index 4-fold higher than cells obtained from mice immunized with native Der p 2 (SEQ ID7).

Molecule | apoptosis of EG7 cells [1] | tumor rejection [2] | concentration of specific anti-Der p 2 antibodies, versus mice immunized with native Der p 2 (SEQ ID7) [3] [fold] | stimulation index of CD4+ T cell proliferation, versus cells from mice immunized with native Der p 2 (SEQ ID7) [4] [fold]
B1 | induced into apoptosis | rejected the tumor |  | 
B2 | did not induce a significant degree of tumor cell apoptosis | did not |  | 
B3 |  |  | 10 | 4
